Laboratory results published in patent CN114409766A (AGRICULTURAL UNIV IN CHINA, dated 2022).

B1: 单克隆抗体R1 (scFv fused to FLAG tag or hFc) (scFv)
scFv: QSVKESEGGLFKPTDTLTLTCTVSGFSLSSNAISWVRQAPGNGLEYIGYISYRGNTYYASWARSRSTITRNTNENTVTLKMTRLTAADTATYFCARIRSYSRANGHADGFDPWGPGTLVTVSSGGGGSGGGGSGGGGSDVVMTQTPSSVSAAVGGTVTINCQASESISNLLAWYQQKPGQPPKLLIYGASNLESGVPSRFRGSGSGTQFTLTISGVKDEDVATYYCQSGRYAAGATFGAGTNVEIK
notes: also called R1抗体; 单抗R1
B2: 单克隆抗体R9 (scFv fused to FLAG tag or hFc) (scFv)
scFv: QSVKESEGGLFKPTDTLTLTCTVSGSSLRSYGVSWVRQAPGTGLEWIGAIGRSGSAYYASWAKSRSTITRNTNDNTVTLKMTSLTAADTATYFCARAYFGNSIGPFNIWGPGTLVTVSSGGGGSGGGGSGGGGSAIVLTQTPSSVSAPVGGTVTINCQASQSVSNLLAWYQQKPGQPPKLLIYGASNLESGVPSRFRGSGSGTQFTLTISGVKAEDVAAYYCHQHSSFPLTFGAGTKVEIK

Target: T1, EBV病毒颗粒 (gp350 on EB virus particles) (Epstein-Barr virus, UniProt P03200 1-907)
T1 construct: also called EBV颗粒; UV-EBV病毒颗粒
T1 sequence (looked up): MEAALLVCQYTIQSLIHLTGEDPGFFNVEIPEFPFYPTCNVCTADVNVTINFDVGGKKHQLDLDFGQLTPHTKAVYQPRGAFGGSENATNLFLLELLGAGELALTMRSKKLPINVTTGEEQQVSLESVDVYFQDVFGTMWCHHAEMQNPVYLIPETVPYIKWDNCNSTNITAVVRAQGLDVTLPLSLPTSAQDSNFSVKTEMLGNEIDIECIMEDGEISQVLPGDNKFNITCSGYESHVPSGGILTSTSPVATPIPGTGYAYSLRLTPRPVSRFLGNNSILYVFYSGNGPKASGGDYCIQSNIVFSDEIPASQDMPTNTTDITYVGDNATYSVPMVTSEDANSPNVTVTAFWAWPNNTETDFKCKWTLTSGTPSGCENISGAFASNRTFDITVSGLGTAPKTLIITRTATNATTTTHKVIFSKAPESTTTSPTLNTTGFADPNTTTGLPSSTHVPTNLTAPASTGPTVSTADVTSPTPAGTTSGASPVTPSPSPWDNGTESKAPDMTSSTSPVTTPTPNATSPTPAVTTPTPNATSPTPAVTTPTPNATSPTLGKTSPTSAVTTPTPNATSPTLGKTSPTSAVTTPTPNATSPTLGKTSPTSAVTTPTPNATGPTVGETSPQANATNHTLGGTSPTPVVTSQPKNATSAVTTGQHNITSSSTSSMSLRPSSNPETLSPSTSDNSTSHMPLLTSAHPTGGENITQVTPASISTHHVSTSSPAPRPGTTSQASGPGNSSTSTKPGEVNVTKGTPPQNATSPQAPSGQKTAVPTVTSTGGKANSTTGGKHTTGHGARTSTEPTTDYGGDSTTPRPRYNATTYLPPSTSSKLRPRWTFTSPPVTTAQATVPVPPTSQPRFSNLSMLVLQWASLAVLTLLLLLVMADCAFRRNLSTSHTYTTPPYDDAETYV
Assay: ELISA, EBV particles coated, titrated binder

| Binder | binding result |
| --- | --- |
| B1 | binds |
| B2 | binds |
